Consider 2 molecules from article PMC11179147 (Nature, 2023).

Experiment [1] concerns the target full-length WT METTL1, unlabeled (without WDR4) (human, UniProt Q9UBP6 1-276). The experiment in a line: NMR titration.
The target of experiment [2] is full-length R109A/K111A METTL1, unlabeled (human, UniProt Q9UBP6 1-276, R109A | K111A). As to the kind of experiment: NMR titration.

B1: METTL1 1-75 (N-terminal segment of METTL1), isotope-labelled (domain or fragment, human, UniProt Q9UBP6 1-75, looked up)
chain: MAAETRNVAGAEAPPPQKRYYRQRAHSNPMADHTLRYPVKPEEMDWSELYPEFFAPLTQNQSHDDPKDKKEKRAQ
For the molecule B1, the binding result in experiment [1] and in experiment [2] was “binds” each time.

B2: S27D METTL1 1-75, isotope-labelled (domain or fragment, human, UniProt Q9UBP6 1-75, looked up)
chain: MAAETRNVAGAEAPPPQKRYYRQRAHDNPMADHTLRYPVKPEEMDWSELYPEFFAPLTQNQSHDDPKDKKEKRAQ
Take B2: in experiment [1], the binding result is listed as “binds”.
